Experimental data as given in patent US20210340232A1, “MONOCLONAL ANTIBODIES AGAINST HUMAN DICKKOPF3 AND USES THEREOF” (Board of Regents, The University of Texas System, priority 2018, published 2021).

Columns and labels:
[1] = tested on: KPC model of PDAC; experiment: Survival of KPC mice (P48-Cre; Kras LSL-G12D;Trp53fl/fl) with wild type DKK3; format: in vivo, mouse
Description: (§1) HPSCs and BxPC3 cells were treated with DKK3 mAb clones JM6-6-1 and JM8-12-1 or isotype control mAb or PBS. (FIGS. 5A-B) HPSC apoptosis and migration as measured by FACS and Transwell migration assay at 48 hours. (FIG. 5C) BxPC3 migration in response to rhDKK3 10 μg/ml as measured by Transwell migration assay at 48 hours. (FIG. 5D) BxPC3 resistance to gemcitabine 100 μM as measured by MTS proliferation assay at 6 days. HPSC-CM, pancreatic stellate cell conditioned media, 10 μg/ml. The orthotopic co-injection BxPC3+ HPSC model of PDAC was used to test the efficacy of DKK3 mAb clones JM6-6-1 or JM8-12-1 (5 mg/kg i.p. once every 5 days). (FIG. 5E) Overall tumor progression was measured every 3-4 days by IVIS imaging. (FIG. 5F) Metastatic tumors in the peritoneal cavity after removal of the primary pancreatic tumor are shown by IVIS imaging. (FIG. 5G) Kaplan Meier survival curve showing mice treated with DKK3 mAb clone JM8-12 (right-most line), control mAb (middle line), or PBS (left-most line). (FIG. 5H) KPC mice (P48-Cre; Kras LSL-G12D;Trp53fl/fl) with either wild type DKK3 (solid lines) or deficient in DKK3 (“DKK3-KO,” dashed lines) were treated with DKK3 mAb JM6-6-1 (5 mg/kg i.p. once every 5 days), PBS or control mAb. Kaplan Meier survival curve is shown with hazard ratios (Log-rank test). *p<0.05, **p<0.01, ***p<0.001, ****p<0.0001 vs. control Ab.
Two GEMMs of PDAC that differ in the pancreas-specific promoter to target oncogenic Kras expression (Hingorani et al., 2005; Hingorani et al., 2003) were used in the experiments to evaluate the effect of DKK3 neutralizing mAb (Pdx1-Cre; Kras^LSL-G12D; Trp53^R172H/+ and P48-Cre; Kras^LSL-G12D; Trp53^fl/fl). To evaluate the effects of genetic ablation of DKK3 on pancreatic cancer development, DKK3-null mice were crossed to P48-Cre; Kras^LSL-G12D;Trp53^R172H or P48-Cre; Kras^LSL-G12D; Trp53^fl/fl mice (Hingorani et al., 2005; Hingorani et al., 2003), and the progeny were monitored until they were moribund. Tissue and blood samples were collected after the mice were euthanized. […]

[2] = tested on: BxPC3 cells; experiment: BxPC3 Transwell migration in response to rhDKK3; format: cell-based, human; settings: BxPC3, rhDKK3 10 μg/ml, 48 hours
Description: HPSCs and BxPC3 cells were treated with DKK3 mAb clones JM6-6-1 and JM8-12-1 or isotype control mAb or PBS. (FIGS. 5A-B) HPSC apoptosis and migration as measured by FACS and Transwell migration assay at 48 hours. (FIG. 5C) BxPC3 migration in response to rhDKK3 10 μg/ml as measured by Transwell migration assay at 48 hours. (FIG. 5D) BxPC3 resistance to gemcitabine 100 μM as measured by MTS proliferation assay at 6 days. HPSC-CM, pancreatic stellate cell conditioned media, 10 μg/ml. The orthotopic co-injection BxPC3+ HPSC model of PDAC was used to test the efficacy of DKK3 mAb clones JM6-6-1 or JM8-12-1 (5 mg/kg i.p. once every 5 days). (FIG. 5E) Overall tumor progression was measured every 3-4 days by IVIS imaging. (FIG. 5F) Metastatic tumors in the peritoneal cavity after removal of the primary pancreatic tumor are shown by IVIS imaging. (FIG. 5G) Kaplan Meier survival curve showing mice treated with DKK3 mAb clone JM8-12 (right-most line), control mAb (middle line), or PBS (left-most line). (FIG. 5H) KPC mice (P48-Cre; Kras LSL-G12D;Trp53fl/fl) with either wild type DKK3 (solid lines) or deficient in DKK3 (“DKK3-KO,” dashed lines) were treated with DKK3 mAb JM6-6-1 (5 mg/kg i.p. once every 5 days), PBS or control mAb. […]
Cell-based assays. Cell proliferation was measured by the MTS assay (Promega, Madison, Wis.). […]

[3] = tested on: BxPC3 + HPSC orthotopic tumors; experiment: Orthotopic co-injection BxPC3 + HPSC nude mouse model of PDAC; format: in vivo; settings: 5 mg/kg i.p. once every 5 days, vs PBS or control mAb
Description: as §1
An orthotopic nude mouse model of PDAC using BxPC3 cancer cells labeled with firefly luciferase (BxPC3-FL) co-injected with HPSCs has been previously described (Hwang et al., 2008). Mice received intrapancreatic injections of BxPC3-FL (1×10^6 per mouse) with HPSC-shControl or HPSC-shDKK3 in a tumor-to-stroma ratio of 1:0 or 1:3 in 50-μL of HBSS and tumor growth was monitored using IVIS imaging (Hwang et al., 2008). In addition, a syngeneic immunocompetent DKK3 null model was used, provided by Dr. C. Niehrs (Barrantes Idel et al., 2006), that was injected with murine PDAC cells (termed “KPC cells”) isolated from tumors arising in a GEMM of PDAC (Pdx1-Cre; Kras^LSL-G12D;Trp53^R172H/+) (Hingorani et al., 2005; Hingorani et al., 2003) and labeled with luciferase.
The efficacy of DKK3 mAb was tested in vivo using the previously described orthotopic co-implantation nude mouse model of PDAC with human PSCs mixed with luciferase-labeled BxPC3 cancer cells (1:3 tumor:PSC ratio). Mice were treated with either phosphate-buffered saline (PBS), isotype control mAb, or DKK3 mAb (clone JM6-6-1; 5 mg/kg i.p. once every 5 days) and tumor growth was followed with IVIS imaging. […] Tumors in the PBS and control mAb groups grew rapidly from day 22 onward, with an 8-fold increase in the luciferase signal.

[4] = JM6-6-1 5 mg/kg i.p. once every 5 days

B1: JM6-6-1: monoclonal antibody against human DKK3; heavy chain variable SEQ ID NO: 19, light chain variable SEQ ID NO: 20 (antibody, V domains shown)
VH: EVKLVESGGGLVKPGGSLKLSCAASGFTFTIEYMAWIRQTPEKRLEWVASISSGGDDIYYADNVKGRFTISRDNAKNTLYLQMSSLKSEDTAIYYCSRSLSDWGQGTTLTVSSAKTTPPSDYPLA
VL: MTQTPLSLPVSLGDQASISCRSSQSILHSNGHTYLEWYLQKPGQSPKLLIYKVSNRFSGVPDRFSGSGSGTDFTLKISRVEAEDLGVYYCFQGSHVPFTFGSGTKLEIERADAAQ
[1]; [4]
  hazard ratio (HR) compared to PBS or isotype control mAb: 0.24
  increase of median survival compared to PBS or isotype control mAb: 43%
[1]; KPC mice with wild type DKK3
  median survival: 61.5 days
[2]
  effect on DKK3-mediated induction of migration: reverse the DKK3-mediated induction of migration
[3]; day 22 until day 33
  tumor growth by IVIS imaging: significant inhibition in tumor growth
[3]
  lower volume of metastatic disease in peritoneal cavity by luciferase signal: 6.5 fold
